The data set can be described thus: label from the status in PepcDB records.
For the sequence “MVRETYALLTGLFVVILGSALIGIALVLGDYGTERDVYVVSTQGAVSGLNPESLVIFRGVRAGKVASISFAPHDPRTILVRIEVDKGLPITRGTYATLRVQPLTGLAQIDLSDEGNDPEPLRTDPRNPANIPLRPSLLDKLTGSGSDILTQIAQLTSRLNALLDDGNRQRIAHTLESLDTAADELVRLERYIEEGLERIPILDGRLRQALADHSAMARDVRETSRQVRALSESAQKVVDIGAAASDTLIRSRLPELDALIDDAAHTAASLRRLSKTLERDPQTLLLGPAPGLPGPGEPGFQEPK”, the protein production result is “failed”.

As to “MSLKTNFVKYERKDNKDLCEITLENDAGMAVKVLNYGATLEKVLLDGENMILSLNSPEDYSKERNFLGGTVGRIAGRVRAGQWKHGNEIHQLPLNDGDNHIHGGIGTDMHVWDFRPSCDSEHARVDLTLFDPDGNNDYPGNLKLHARYELDNENNLHYLLEAVSDKLTIFNPVNHTYFNLGERAEDLNLQMNADYYLPVDEAGLPDRGMAEVAGTAFDFRKTKRIGDALNSDDSQIKLRNGLDHPFILNGNNPAALLSSNKHRLIVKTNAPALVLYAGNHFNHTGIVNNIGQYDGITFEAQCPPAEGNDLGQITLLPFEKFKRTVDWKFEEGHHHHHH”, the protein production result was “not failed”.

Consider “MIIERLVGNLRDLNPLDFSVDHVDLEWFETRKKIARFKTRQGKDIAIRLKDAPKLGLSQGDILFKEEKEIIAVNILDSEVIHIQAKSVAEVAKICYEIGNRHAALYYGESQFEFKTPFEKPTLALLEKLGVQNRVLSSKLDSKERLTVSMPHSEPNFKVSLASDFKVVVK”, for which the protein production entry is on record as “not failed”.

With “MALRNVPFRSEVLGWDPDSLADYFKKLNYKDCEKAVKKYHIDGARFLNLTENDIQKFPKLRVPILSKLSQEINKNEERRSIFTRKPQVPRFPEETESHEEDNGGWSSFEEDDYESPNDDQDGEDDGDYESPNEEEEAPVEDDADYEPPPSNDEEALQNSILPAKPFPNSNSMYIDRPPSGKTPQQPPVPPQRPMAALPPPPAGRNHSPLPPPQTNHEEPSRSRNHKTAKLPAPSIDRSTKPPLDRSLAPFDREPFTLGKKPPFSDKPSIPAGRSLGEHLPKIQKPPLPPTTERHERSSPLPGKKPPVPKHGWGPDRRENDEDDVHQRPLPQPALLPMSSNTFPSRSTKPSPMNPLPSSHMPGAFSESNSSFPQSASLPPYFSQGPSNRPPIRAEGRNFPLPLPNKPRPPSPAEEENSLNEEWYVSYITRPEAEAALRKINQDGTFLVRDSSKKTTTNPYVLMVLYKDKVYNIQIRYQKESQVYLLGTGLRGKEDFLSVSDIIDYFRKMPLLLIDGKNRGSRYQCTLTHAAGYP”, the protein production entry is recorded as “not failed”.

For the sequence “MSLHASAIESIETIIVDLPTIRPHKLAMHTMQNQTLVLIRLRCADGIEGLGESTTIGGLAYGNESPDSIKTNIDRFVAPLLIGQDASNINAAMLRLEQSIRGNTFAKSGIESALLDAQGKRLGLPVSELLGGRVRDALPVAWTLASGDTAKDIAEAQKMLDLRRHRIFKLKIGAGEVDRDLAHVIAIKKALGDSASVRVDVNQAWDEAVALRACRILGGNGIDLIEQPISRNNRAGMVRLNASSPAPIMADESIECVEDAFNLAREGAASVFALKIAKNGGPRATLRTAAIAEAAGIGLYGGTMLEGGIGTLASAHAFLTLNKLSWDTELFGPLLLTEDILAEPPVYRDFHLHVSKAPGLGLSLDEERLAFFRRDKTTPVLHHTEGHHHHHH”, the protein production result is given as “not failed”.

Turning to “MDRTHERVLQAMAENLGEGLPRAIPLLAEKAPGLLLEHGRSWTYAMPEKGALDEKTRTLILLGIALATGSEACVKAMAHRAKRLGLSKEALLETLKIARQAQANAVLGHAAPLLEVL”, the protein production result is recorded as “not failed”.

As for “RSTIGAGQKVNVEFVSANPTGPMHVGHVRGAVVGDALARLLAYAGWNVTREYYINDGGAQVDVLARSAFERYREAHGLEPEIREGLYPGDYLIPVGEALKAKYGDSLLDKGEQHWLTEVREFATEMMMQMIREDLAALGVEMDVYSSEKALYGTGKIEAALDRLKEMDLIYEGVLEPPKGKTPEDWEPREQTLFRSTAHGDDVDRPVKKSDGSWTYFAPDIAYHYDKVTRGFDQLIDIFGADHGGYVKRMKAAVAALSAGRVPLDIKLIQLVKLWKNGEPFKMSKRAGTYVTLRDVVEQVGTDVTRFVMLTRKNDATLDFDFDKVLEQSKENPVFYVQYANARINSVLRKAREQGMDVSDA”, the protein production entry is on record as “failed”.

Regarding “MNKITSAFIRVLRQSSSSGGTGNLLGRQLSYKSDLSLDKIYPGARLQIYTPPPPPSGSDKFSGFIPMDRLEITYSRSSGPGGQHVNTVNTKVDVRFKVAQADWIPEQTRQKLLKVLANRITKDGYFYIKSDLTRSQQMNLADALEKLRTIIRSQEAVAPAPPSEETLEKLRRRQERAVRERLQLKRGRAQVKADRQGPSGLDL”, the protein production entry is listed as “failed”.

Regarding “MVAPLEIKNSNAFCFFPVSFASSRFPWLLKTLVMILGLATVVFMFRSLALTAEFGTFKPAFPKPGPVDPVLKLLSEEHLRTLFTYSDIWLFPKNQCDCESGKQQMKYKYQNAYNQKDLPAVNARRQAEFEHFQRREGLPRPPPLLASPNLPFGYPVHGVEVMPLHTILIPGLQYEGPDAPVYEVTLKASLGTLNTLADVSDNEVQGRGQRQLSISTRHRKVLNFILQHVTYTSTVYHLHKVDIVSMESKSSVAKFPVTIKHQTVPKLYDPGPERKLRNLVTIATKTFLRPHKFKILLQSIRKYYPDLTVIVTDDSKEPLEIKDDYVEYYPMPFGKGWFAGRNLAISQVTTKYVLWVDDDFLFSNKTKIEVLVDVLEKTELDVVGGSVQGNTFQFRLLLERSENGDCLHQRWGSFQALDGFPGCTLASGVTNFFLAHTEQLRRVGFDPALQRVAHREFFIDGLGSLLVGSCPGVTVDHQTRTPSKDPKLAALEMSYAKYRTNTNSQVQFKLALHYFKNHLYCAT”, the protein production entry is listed as “failed”.

With “METTPVTSCTIIDATDRSIRQTLGETSTLARLIWVDAGLASPPLCSGLARCGRCRVRITEAAPAPHEDDREFFSAEDISAGWRLACRHAPAHGMVVHVPLPVMPHRHASRPKHPGPFRLAVDLGTTSLQWSLLAPDGTVAAQGSETNPQMGAGSDVMSRIAMARSDKGRGRLRELVLQALRRIVADVEGTPATADAVPPAGSGDEPTTACGYESRVEELCVAGNTAMTAILADESVEGLASAPYRLEMRGGTALALPGLPPAWIPPLPAPFVGGDLSAGYLAVLTDHAPAFPFVLADLGTNGEFVLALSPERTLVTSVALGPALEGIGLTFGTVAQRGAITSFTLTPGGLVPYVLDGGEADGISGTGYISLVHALLRAGLLDVDGRFIQSPSSPLAARMARSIVSHRGEPCLPLARGLYLAARDIEEILKVKAAFSLAFERLLATAQMPSHALSGIHLAGALGQHALPADLEGLGFIPPGSGGRTRAVGNTSLRGAELLLTSPPLRDTLNTWREGCTVVDLTAAPDFSAAFLRHMHFHFLEHHHHHH”, the protein production result was “failed”.

In the case of “MFEYRCSSIDWKPSPVVALATSADGSQVAAAREDGSLELWLVSPGASSWHCQLIIHGDPKSRISHLAWFGTGSKGSSSARLFSSSIDGSISEWDLFDLKQKVVLDSIGFSIWQIALAPISIEAESKEAKLIQNGYLSEKSDDEEESGVEDDSELDELDEKVEALDRHLAAACDDGCVRIYYISESDKLTYYRSLPRVTGRALSVTWSADAQRIFSGSSDGLIRCWDANLCHEVYRITVGLGGLGNGSELCIWSLLSLRYGVLVSGDSTGSVQFWDSQHGTLLQAHSNHKGDVNALAASPSHNRVFSAGADGQVILYKLSGGTSRSQDFKPSSAQKWDYIGCVRAHTHDIRALTVAVPISWEGSIPDRNAKVTSPKQRRKEPAGFSYHKWAHLGVPMLISAGDDAKLYAYSVQEFTKFPPHDICPAPQRVPMQMVHNTVFNQTSLLLVQDSCSLDILRIHISNDSSGRVSTKPLVRVKSKDARKIICSAISNTGSLFAYSDQVRPSLFELKKNKIGKNPWSANRKRLPNLPFAHSMVFSCDCSRLIIAGHDRRIYIVDVGSMELLHSFTPRQEGQEGESPPHEPPITKLYTSSNDDWLAAINCFGDIYVFNLETQRQHWFISRLDGASVAAAGFHPRDNNVIVISTSSNQVFALDVEARELSKWSLLQTFCLPKSYQNFPGEVVGLSFSPSPCSSSVIIYSSRAKCLIEFGKPAEQDEDTDTPCNLSEKLEGKLASISMKLGNGAQKRRLEEYQKESKSNKRKKFEMVTSKHPVLYLRHLSKSAILVIEKPWMEVIKNLDTQPVHRHIFGT”, the protein production entry is “failed”.

Regarding “MSDVSTQSPKVGFVSLGCPKALVDSEQIITQLRAEGYEISGTYGGADLVVVNTCGFIDEAVQESLDAIGEALAENGKVIVTGCLGAKKDAAGQDIITSVHPKVLAVTGPHALGEVMEAVHTHLPKPHDPFIDLVPPQGIKLTPKHYAYLKISEGCNHRCSFCIIPSMRGDLVSRPVAEVMLEAENLLKAGVKELLVISQDTSAYGVDVKFRTGFWNGRPLKTRMTELVGALGELAAQYGAWVRLHYVYPYPSVDEVMPLMAEGKVLPYLDVPLQHAHPEVLKRMKRPANAEKTLDRIRAWREVCPELTIRSTFIAGFPGETEEEFQTLLDFIAEAELDRVGCFAYSPVEGATANDLPGALPDEVREERRARFMEVAERVSARRLQRKVGKTLRVLVDEVNQDGGIGRSSADAPEIDGLVYIAPPSKPYKRYKAGDFVSVKITGADGHDLWGEVLEHHHHHH”, the protein production entry was “failed”.

On to “MAYSYTEKKRIRKDFSKLPDVMDVPYLLAIQLDSYREFLQAGATKEQFRDVGLHAAFKSVFPIISYSGNAALEYVGYRLGEPAFDVKECVLRGVTFAVPLRVKVRLIIFDRESSNKAIKDIKEQEVYMGEIPLMTENGTFIINGTERVIVSQLHRSPGVFFDHDRGKTHSSGKLLYSARIIPYRGSWLDFEFDPKDCVFVRIDRRRKLPASVLLRALGYSTEEILNAFYATNVFHIKGETLNLELVPQRLRGEVASIDIKDGSGKVIVEQGRRITARHINQLEKAGVSQLEVPFDYLIGRTIAKAIVHPATGEIIAECNTELTLDLLAKVAKAQVVRIETLYTNDIDCGPFISDTLKIDNTSNQLEALVEIYRMMRPGEPPTKEAAETLFGNLFFSAERYDLSAVGRMKFNRRIGRTEIEGPGVLSKEDIIDVLKTLVDIRNGKGIVDDIDHLGNRRVRCVGEMAENQFRVGLVRVERAVKERLSMAESEGLMPQDLINAKPVAAAIKEFFGSSQLSQFMDQNNPLSEITHKRRVSALGPGGLTRERAGFEVRDVHPTHYGRVCPIETPEGPNIGLINSLATYARTNKYGFLESPYRVVKDSLVTDEIVFLSAIEEADHVIAQASATLNEKGQLVDELVAVRHLNEFTVKAPEDVTLMDVSPKQVVSVAASLIPFLEHDDANRALMGSNMQRQAVPTLRADKPLVGTGMERNVARDSGVCVVARRGGVIDSVDASRVVVRVADDEVETGEAGVDIYNLTKYTRSNQNTCINQRPLVSKGDVVARGDILADGPSTDMGELALGQNMRVAFMPWNGFNFEDSICLSERVVQEDRFTTIHIQELTCVARDTKLGPEEITADIPNVGEAALNKLDEAGIVYVGAEVQAGDILVGKVTPKGETQLTPEEKLLRAIFGEKASDVKDTSLRVPTGTKGTVIDVQVFTRDGVERDSRALSIEKMQLDQIRKDLNEEFRIVEGATFERLRAALVGAKAEGGPALKKGTEITDDYLDGLERGQWFKLRMADDALNEQLEKAQAYISDRRQLLDDKFEDKKRKLQQGDDLAPGVLKIVKVYLAIKRRIQPGDKMAGRHGNKGVVSVIMPVEDMPHDANGTPVDIVLNPLGVPSRMNVGQILETHLGLAAKGLGEKINRMLEEQRKVAELRKFLHEIYNEIGGREENLDELGDNEILALAKNLRGGVPMATPVFDGAKEREIKAMLKLADLPESGQMRLFDGRTGNQFERPTTVGYMYMLKLNHLVDDKMHARSTGSYSLVTQQPLGGKAQFGGQRFGEMEVWALEAYGAAYTLQEMLTVKSDDVNGRTKMYKNIVDGDHRMEAGMPESFNVLIKEIRSLG”, for which the protein production result was “failed”.

The values above are taken from a protein production outcome set (Wang et al. 2014).
